Results on 46 sequences are retold here after the supplement of paper PMC11780869.

For this data set, the system named is Bacillus subtilis. Description: cleaved RNA product abundance (RNA/gDNA barcode ratio) relative to median wild-type variant (ratio to wild type); higher = more accumulation of the downstream cleavage product. The following applies: experiment (reporter, strain, medium): exp 8a: truncated aprE reporter, strain BJT201 with 2% xylose (RNase J1 expressed); cleavage site: glnRA (positions -5 to +31 mutated). The procedure, abridged: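 Cleaved product abundance is expressed as the RNA:gDNA barcode ratio per construct, scaled to the median construct carrying the unmutated site. The constructs were barcoded, mutagenized RNase Y cleavage-site windows in truncated aprE or tetM reporter mRNAs integrated into the B. subtilis chromosome. Cultures grew in LB at 37°C from OD600 0.0003 to 0.3 before cleaved RNA was gel-selected and barcode-sequenced.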
In the case of “CGACATGTCCCGCTTCTTTCATTAATCCGTTAGCAACTGTATTGCTAAATACATTTACCTTTTAAGAGGAGGAAT”, the “cleaved RNA product abundance” value was 0.438. To “CGACATGTCCCGCTTCTTTCATTAATCCGTTAGCAACTGTATTGCTATATAAATTTACCTTTTAAGAGGAGGAAT” belongs 0.849.

For “CGACATGTCCCGCTTCTTTCATTAATCCGTTAGCAACTGTATTGCTATATACATATACCTTTTAAGAGGAGGAAT”, the “cleaved RNA product abundance” value was determined as 0.755. Turning to “CGACATGTCCCGCTTCTTTCATTAATCCGTTAGCAACTGTATTGCTATATACATGTACCTTTTAAGAGGAGGAAT”, the “cleaved RNA product abundance” value was found to be 0.783. Then “CGACATGTCCCGCTTCTTTCATTAATCCGTTAGCAACTGTATTGCTATATACATTTAACTTTTAAGAGGAGGAAT”, with 1.13; and “CGACATGTCCCGCTTCTTTCATTAATCCGTTAGCAACTGTATTGCTATATACATTTACATTTTAAGAGGAGGAAT”, with 1.47. With “CGACATGTCCCGCTTCTTTCATTAATCCGTTAGCAACTGTATTGCTATATACATTTACCCTTTAAGAGGAGGAAT”, the “cleaved RNA product abundance” value came to 1.1. Turning to “CGACATGTCCCGCTTCTTTCATTAATCCGTTAGCAACTGTATTGCTATATACATTTACCTTTTAAGAGGAGGAAT”, the “cleaved RNA product abundance” value came out at 0.943. Take “CGACATGTCCCGCTTCTTTCATTAATCCGTTAGCAACTGTATTGCTATATACATTTACGTTTTAAGAGGAGGAAT”: the “cleaved RNA product abundance” value was 1.16.

As to “CGACATGTCCCGCTTCTTTCATTAATCCGTTAGCAACTGTATTGCTATATACATTTATCTTTTAAGAGGAGGAAT”, the “cleaved RNA product abundance” value was determined as 1.07. To “CGACATGTCCCGCTTCTTTCATTAATCCGTTAGCAACTGTATTGCTATATTCATTTACCTTTTAAGAGGAGGAAT” belongs 0.16. “CGACATGTCCCGCTTCTTTCATTAATCCGTTAGCAACTGTATTGCTATTTACATTTACCTTTTAAGAGGAGGAAT”: the “cleaved RNA product abundance” value came to 0.202.

As for “CGACATGTCCCGCTTCTTTCATTAATCCGTTAGCAACTGTATTGGTATATACATTTACCTTTTAAGAGGAGGAAT”, the “cleaved RNA product abundance” value came to 0.175. In the case of “CGACATGTCCCGCTTCTTTCATTAATCCGTTAGCAACTGTATTTCTATATACATTTACCTTTTAAGAGGAGGAAT”, the “cleaved RNA product abundance” value was determined as 0.506. To “CGACATGTCCCGCTTCTTTCATTAATCCGTTAGCAACTGTCTTACTATATACATTTACCTTTTAAGAGGAGGAAT” belongs 0.324; to “CGACATGTCCCGCTTCTTTCATTAATCCGTTAGCAACTGTCTTGATATATACATTTACCTTTTAAGAGGAGGAAT”, 0.547.

As for “CGACATGTCCCGCTTCTTTCATTAATCCGTTAGCAACTGTCTTGCTATATACATTTACCTTTTAAGAGGAGGAAT”, the “cleaved RNA product abundance” value stood at 0.849. Then “CGACATGTCCCGCTTCTTTCATTAATCCGTTAGCAACTGTCTTGCTATCTACATTTACCTTTTAAGAGGAGGAAT”, with 0.0931.

Turning to “CGACATGTCCCGCTTCTTTCATTAATCCGTTAGCAACTGTGTAGCTATATACATTTACCTTTTAAGAGGAGGAAT”, the “cleaved RNA product abundance” value amounted to 0.23.

Take “CGACATGTCCCGCTTCTTTCATTAATCCGTTAGCAACTGTGTTACTATATACATTTACCTTTTAAGAGGAGGAAT”: the “cleaved RNA product abundance” value was determined as 0.274. On to “CGACATGTCCCGCTTCTTTCATTAATCCGTTAGCAACTGTGTTGCTATATACATTTACATTTTAAGAGGAGGAAT”, for which the “cleaved RNA product abundance” value was determined as 0.517. Then “CGACATGTCCCGCTTCTTTCATTAATCCGTTAGCAACTGTGTTGCTATATACATTTACCATTTAAGAGGAGGAAT”, with 0.38; and “CGACATGTCCCGCTTCTTTCATTAATCCGTTAGCAACTGTGTTGCTATATACATTTACCGTTTAAGAGGAGGAAT”, with 0.537; and “CGACATGTCCCGCTTCTTTCATTAATCCGTTAGCAACTGTGTTGCTATATACATTTACCTTTTAAGAGGAGGAAT”, with 0.358. Turning to “CGACATGTCCCGCTTCTTTCATTAATCCGTTAGCAACTGTGTTGTTATATACATTTACCTTTTAAGAGGAGGAAT”, the “cleaved RNA product abundance” value turned out to be 1.01.

Regarding “CGACATGTCCCGCTTCTTTCATTAATCCGTTAGCAACTGTGTTTCTATATACATTTAACTTTTAAGAGGAGGAAT”, the “cleaved RNA product abundance” value amounted to 0.453.

Regarding “CGACATGTCCCGCTTCTTTCATTAATCCGTTAGCAACTGTTAAGCTATATACATTTACCTTTTAAGAGGAGGAAT”, the “cleaved RNA product abundance” value amounted to 0.279. Then “CGACATGTCCCGCTTCTTTCATTAATCCGTTAGCAACTGTTACGCTATATACATTTACCTTTTAAGAGGAGGAAT”, with 0.54; and “CGACATGTCCCGCTTCTTTCATTAATCCGTTAGCAACTGTTATCCTATATACATTTACCTTTTAAGAGGAGGAAT”, with 0.337; and “CGACATGTCCCGCTTCTTTCATTAATCCGTTAGCAACTGTTATGATATATACATTTACCTTTTAAGAGGAGGAAT”, with 0.387. With “CGACATGTCCCGCTTCTTTCATTAATCCGTTAGCAACTGTTATGCCATATACATTTACCTTTTAAGAGGAGGAAT”, the “cleaved RNA product abundance” value amounted to 0.232. “CGACATGTCCCGCTTCTTTCATTAATCCGTTAGCAACTGTTATGCTAAATACATTTACCTTTTAAGAGGAGGAAT”: the “cleaved RNA product abundance” value was found to be 0.111. To “CGACATGTCCCGCTTCTTTCATTAATCCGTTAGCAACTGTTATGCTATATACAATTACCTTTTAAGAGGAGGAAT” belongs 1.02; to “CGACATGTCCCGCTTCTTTCATTAATCCGTTAGCAACTGTTATGCTATATACATTTACCTTTTAAGAGGAGGAAT”, 0.695. Then “CGACATGTCCCGCTTCTTTCATTAATCCGTTAGCAACTGTTATGCTATATACATTTACTTTTTAAGAGGAGGAAT”, with 1.33; and “CGACATGTCCCGCTTCTTTCATTAATCCGTTAGCAACTGTTATGCTATATACATTTAGCTTTTAAGAGGAGGAAT”, with 0.711; and “CGACATGTCCCGCTTCTTTCATTAATCCGTTAGCAACTGTTATGCTATATACCTTTACCTTTTAAGAGGAGGAAT”, with 0.184.

Turning to “CGACATGTCCCGCTTCTTTCATTAATCCGTTAGCAACTGTTATGCTATATACGTTTACCTTTTAAGAGGAGGAAT”, the “cleaved RNA product abundance” value was determined as 0.232. Then “CGACATGTCCCGCTTCTTTCATTAATCCGTTAGCAACTGTTATGCTATATAGATTTACCTTTTAAGAGGAGGAAT”, with 1.29; and “CGACATGTCCCGCTTCTTTCATTAATCCGTTAGCAACTGTTATGGTATATACATTTACCTTTTAAGAGGAGGAAT”, with 0.161.

Consider “CGACATGTCCCGCTTCTTTCATTAATCCGTTAGCAACTGTTATGTTATATACATTTACCTTTTAAGAGGAGGAAT”, for which the “cleaved RNA product abundance” value amounted to 0.172. To “CGACATGTCCCGCTTCTTTCATTAATCCGTTAGCAACTGTTATTCTATATACATTTACCTTTTAAGAGGAGGAAT” belongs 0.506. Then “CGACATGTCCCGCTTCTTTCATTAATCCGTTAGCAACTGTTCAGCTATATACATTTACCTTTTAAGAGGAGGAAT”, with 0.344; and “CGACATGTCCCGCTTCTTTCATTAATCCGTTAGCAACTGTTCTGCAATATACATTTACCTTTTAAGAGGAGGAAT”, with 0.103; and “CGACATGTCCCGCTTCTTTCATTAATCCGTTAGCAACTGTTCTGCTATATACATGTACCTTTTAAGAGGAGGAAT”, with 0.386. Then “CGACATGTCCCGCTTCTTTCATTAATCCGTTAGCAACTGTTCTGCTATATACATTTACCTTTTAAGAGGAGGAAT”, with 0.446.
